Where no end group is shown, it is not given here. The star is where a group is joined. Biotin = O=C1N[C@H]2[C@H](CS[C@H]2CCCCC(=O)*)N1

Test [1] deals with T1, GPPPPIDNGDITSFP(GGGK-biotin).
T1 construct: also called biotinylated 15-mer peptide; biotinylated 19-mer
T1 peptide: GPPPPIDNGDITSFPGGGK(Biotin)
Briefly: ELISA: biotinylated peptide captured on immobilized Neutravidin, antibody at 0.5 µg/ml, anti-human IgG-HRP/ABTS, OD 405 nm.

Test [2] addresses T2, Sm (sphingomyelin).
T2 construct: in an ANA panel of nuclear antigens Sm is usually the Smith ribonucleoprotein antigen; Kept, but see recheck
Put plainly: AtheNA Multi-Lyte ANA, Ab at 8.35 ug/ml.

In test [3] the target is ribonucleoprotein (RNP). Put plainly: AtheNA Multi-Lyte ANA, Ab at 8.35 ug/ml.
The target in test [4] is systemic lupus erythematosus autoantigen SSA. Put plainly: AtheNA Multi-Lyte ANA, Ab at 8.35 ug/ml.
In test [5] the target is T3, reduced form of Complement Factor H (CFH), treated with TCEP (human, UniProt P08603 19-1231, disulfides reduced with 10 mM TCEP).
T3 construct: also called reduced CFH; reduced form of CFH
Briefly: immunoblot, SDS-PAGE under reducing conditions, antibody at 0.5 µg/ml, anti-human IgG-HRP, chemiluminescence; lane numbers as in Table 10. Background: A western blot detects proteins with antibodies after separation by electrophoresis.

For test [6], the target named is T2, Sm (sphingomyelin). Briefly: AtheNA Multi-Lyte ANA, Ab at 4.175 ug/ml.
For test [7], the target named is ribonucleoprotein (RNP). Briefly: AtheNA Multi-Lyte ANA, Ab at 4.175 ug/ml.
Test [8] concerns the target systemic lupus erythematosus autoantigen SSA. Put plainly: AtheNA Multi-Lyte ANA, Ab at 4.175 ug/ml.
The target in test [9] is T2, Sm (sphingomyelin). Put plainly: AtheNA Multi-Lyte ANA, Ab at 16.7 ug/ml.
For test [10], the target named is ribonucleoprotein (RNP). Briefly: AtheNA Multi-Lyte ANA, Ab at 16.7 ug/ml.
The target in test [11] is systemic lupus erythematosus autoantigen SSA. Briefly: AtheNA Multi-Lyte ANA, Ab at 16.7 ug/ml.
Test [12] addresses T4, 15-mer peptide GPPPPIDNGDITSFP (SEQ ID NO: 114) (human).
T4 construct: Immobilized for SPR; also called parent peptide
T4 peptide: GPPPPIDNGDITSFP
Briefly: assay and antigen not given; Example 10, epitope mapping on the 15-mer peptide.

In test [13] the target is T5, Complement Factor H (CFH) protein, full-length (human, UniProt P08603 19-1231).
T5 construct: also called full-length CFH; native CFH
Put plainly: immunoblot, SDS-PAGE under non-reducing conditions, antibody at 0.5 µg/ml, anti-human IgG-HRP, chemiluminescence; lane numbers as in Table 10.

In test [14] the target is T2, Sm (sphingomyelin). Briefly: AtheNA Multi-Lyte ANA, Ab at 2.088 ug/ml.
Test [15] concerns the target ribonucleoprotein (RNP). Briefly: AtheNA Multi-Lyte ANA, Ab at 2.088 ug/ml.
Test [16] has as its target systemic lupus erythematosus autoantigen SSA. Briefly: AtheNA Multi-Lyte ANA, Ab at 2.088 ug/ml.
Test [17] has as its target T2, Sm (sphingomyelin). Put plainly: AtheNA Multi-Lyte ANA, Ab at 28.3 ug/ml.
Test [18] addresses ribonucleoprotein (RNP). Briefly: AtheNA Multi-Lyte ANA, Ab at 28.3 ug/ml.
Test [19] addresses systemic lupus erythematosus autoantigen SSA. Briefly: AtheNA Multi-Lyte ANA, Ab at 28.3 ug/ml.
The target in test [20] is T2, Sm (sphingomyelin). Put plainly: AtheNA Multi-Lyte ANA, Ab at 7.075 ug/ml.
Test [21] deals with ribonucleoprotein (RNP). Put plainly: AtheNA Multi-Lyte ANA, Ab at 7.075 ug/ml.
For test [22], the target named is systemic lupus erythematosus autoantigen SSA. Put plainly: AtheNA Multi-Lyte ANA, Ab at 7.075 ug/ml.
For test [23], the target named is T2, Sm (sphingomyelin). Briefly: AtheNA Multi-Lyte ANA, Ab at 3.538 ug/ml.
The target of test [24] is ribonucleoprotein (RNP). Put plainly: AtheNA Multi-Lyte ANA, Ab at 3.538 ug/ml.
The target in test [25] is systemic lupus erythematosus autoantigen SSA. Put plainly: AtheNA Multi-Lyte ANA, Ab at 3.538 ug/ml.

T5 sequence (P08603 19-1231 limits assumed): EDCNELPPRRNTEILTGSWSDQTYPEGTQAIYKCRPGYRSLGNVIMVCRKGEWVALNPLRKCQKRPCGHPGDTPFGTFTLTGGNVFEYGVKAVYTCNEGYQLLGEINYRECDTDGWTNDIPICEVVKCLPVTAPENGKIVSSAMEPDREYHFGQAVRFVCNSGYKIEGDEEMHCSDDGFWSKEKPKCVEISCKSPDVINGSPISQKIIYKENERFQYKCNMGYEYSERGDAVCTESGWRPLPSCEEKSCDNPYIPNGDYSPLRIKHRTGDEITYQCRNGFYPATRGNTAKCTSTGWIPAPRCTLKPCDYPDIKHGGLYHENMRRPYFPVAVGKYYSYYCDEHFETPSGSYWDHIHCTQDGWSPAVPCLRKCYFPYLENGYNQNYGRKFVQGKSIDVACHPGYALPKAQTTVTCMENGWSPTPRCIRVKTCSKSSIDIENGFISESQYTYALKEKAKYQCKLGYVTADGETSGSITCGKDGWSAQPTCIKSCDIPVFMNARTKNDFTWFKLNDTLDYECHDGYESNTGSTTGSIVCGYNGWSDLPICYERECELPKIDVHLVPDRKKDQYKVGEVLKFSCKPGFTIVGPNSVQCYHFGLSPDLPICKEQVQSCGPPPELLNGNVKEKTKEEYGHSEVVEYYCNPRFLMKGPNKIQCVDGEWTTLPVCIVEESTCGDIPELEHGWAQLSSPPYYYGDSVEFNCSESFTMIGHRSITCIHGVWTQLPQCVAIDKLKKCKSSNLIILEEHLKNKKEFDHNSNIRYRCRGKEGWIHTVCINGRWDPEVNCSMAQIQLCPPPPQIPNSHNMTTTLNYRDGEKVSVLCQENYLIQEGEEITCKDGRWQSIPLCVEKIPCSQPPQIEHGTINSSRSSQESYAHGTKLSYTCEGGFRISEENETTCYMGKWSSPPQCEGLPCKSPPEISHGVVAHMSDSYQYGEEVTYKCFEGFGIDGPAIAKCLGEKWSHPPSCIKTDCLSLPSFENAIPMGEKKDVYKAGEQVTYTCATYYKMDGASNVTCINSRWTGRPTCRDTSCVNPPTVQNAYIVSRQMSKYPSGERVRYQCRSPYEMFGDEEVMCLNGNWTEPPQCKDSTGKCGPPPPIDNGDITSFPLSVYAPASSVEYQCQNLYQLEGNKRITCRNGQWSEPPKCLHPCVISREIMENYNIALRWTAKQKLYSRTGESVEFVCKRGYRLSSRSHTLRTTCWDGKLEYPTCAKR
T3 sequence (P08603 19-1231 limits assumed): as above

B1: Ab7979 (antibody, IgG1, V domains shown)
VH: LVESGGGVVQPGKSLRLSCVASGFTFSTYGMHWVRQAPGKGLEWVAVMSFDGKTKYYADSVKGRFTISRDNPKNTLYLQMNSLRSEDTAVYYCAKGGAAAAVFDSWGQGILLTVSS
VL: MTQSPNSLAVSLGGRATINCKTSQSILYRSNNKNYLAWYQHKPGQPPKLLIYWASTRESRVPDRFSGSGSRTDFTLTISGLQAEDVAVYYCQQYYNPPWTFGQGTKVEIK
notes: Recombinant human antibody with IgG1 heavy chain backbone and kappa light chain constant; they begin at LVESGGG and MTQSP; also called Ab7979/239i; mAb 7979
For the molecule B1, the binding result in test [1], in test [5] and in test [13] was “binds” in each case. Further, the AtheNA signal with Sm (sphingomyelin) [2] amounted to 77; with ribonucleoprotein (RNP) [3], 38; in [4], 146; in the test with Sm (sphingomyelin) [6] it was 63; in the test with ribonucleoprotein (RNP) [7] it was 36; in test [8], 140. In addition, the AtheNA signal was determined as 92 in the test with Sm (sphingomyelin) [9]; 40 with ribonucleoprotein (RNP) [10]; 144 in [11]; 45 with Sm (sphingomyelin) [14]; 29 with ribonucleoprotein (RNP) [15]; 119 in test [16]. In test [12], this molecule registered an EC50 of 0.0122 mg/L.

B2: Ab7970 (antibody, IgG1, V domains shown)
VH: LVESGGGVVQPGRSLRLSCAASGLTFSFYNFHWVRQTPGKGLEWVAGISYDATRTNYAGSVTGRFTISRDNSKKMLYLQMSSLGPQDTAVYHCARDRSDGQLHKVAFDSWGQGALVTVSS
VL: MTQSPDSLTLSLGERATINCRSSRTVLYRSNNKNYLAWYQHKPGQPPKLLMSWASTRETGVPDRFSGSGSGTHFTLTITSLQPEDVAVYYCQQYYSPPWTFGQGTKVEIR
notes: IgG1 heavy chain backbone and kappa constant; also called clone 18; pH007970/pK005991_6004
As for B2, in test [1], the binding result is “binds”. The AtheNA signal was 22 in the test with Sm (sphingomyelin) [17]; 56 in the test with ribonucleoprotein (RNP) [18]; 165 in test [19]; 12 with Sm (sphingomyelin) [20]; 44 in the test with ribonucleoprotein (RNP) [21]; 120 in test [22]. The results for the AtheNA signal (with Sm (sphingomyelin) [23]; with ribonucleoprotein (RNP) [24]; in [25]) were 10, 34 and 84, respectively.

For orientation: EC50 means the concentration at which the effect is half-maximal. A low value points to an effect from little substance.

The values are drawn from patent US20190315842A1 (DUKE UNIVERSITY, published 2019).
